According to patent US10668134B2, “Dental pretreatment material and dental tissue regeneration kit” (National Center for Geriatrics and Gerontology, priority 2016, dated 2020):

Columns and labels:
[1] = tested on: canine dental pulp stem cells; experiment: Induction of dental pulp and dentin by dental pulp stem cells attached to treated fine-grained dentin particles; assay type: cell-based; conditions: 7 days culture; for cell adhesion to treated dentin: fine-grained dentin treated for 10 minutes (0.05% trypsin; 1 mM EDTA; 0.05% chymotrypsin; 0.1 mg/mL MMP3), HE stain; for induction of the dental pulp stem cells into the dental pulp and dentin: fine-grained dentin treated for 10 minutes, vs untreated dentin
Experimental: A tooth was extracted from a dog. The cementum and dental pulp of the tooth were removed mechanically. The tooth was then rinsed with tapping water for 3 hours, and then crushed into grains. Fine grains of dentin particles having a diameter of 500 μm to 1,000 μm (fine-grained dentin) were separated by use of a sieve. The fine-grained dentin particles was treated with a mixture liquid containing chloroform and methanol at room temperature for 6 hours, and then, with LiCl (8.0 M) at 4° C. for 24 hours. The fine-grained dentin was then inactivated in distilled water at 55° C. for 24 hours. Thereafter, the fine-grained dentin were divided into six groups: group (i) treated with 0.05% trypsin for 10 minutes; group (ii) treated with 0.05% trypsin and 1 mM EDTA for 10 minutes; a group (iii) treated with 1 mM of EDTA for 10 minutes; group (iv) treated with 0.05% chymotrypsin for 10 minutes; group (v) treated with 0.1 mg/mL MMP3 for 10 minutes; and group (vi) subjected to no treatment. Three fine grains of each of the groups were mixed with 2×10^5 canine dental pulp stem cells. Each mixture underwent centrifugation at 2,000 rpm for 5 minutes, followed by culture in Dulbecco's Modified Eagle's Medium containing 10% FBS at 37° C. for 7 days in the presence of 5% CO2. The culture was then fixed overnight with 4% paraformaldehyde. Paraffin sections were prepared according to a common method, and sliced into 5 μm thick ultrathin sections. The ultrathin sections underwent HE stain.

[2] = tested on: pulpectomized root canal of middle or advanced aged dog; experiment: Dental pulp regeneration following pulpectomy by autologous transplantation of dental pulp stem cells after trypsin pretreatment of the root canal; assay type: in vivo
Source text: Under general anesthesia, anterior teeth of upper and lower jaws of middle or advanced aged dog and young aged dog were pulpectomized. For each tooth, the root canal was enlarged with #50-55 to the apex, and was irrigated alternately with a 5% sodium hypochlorite solution and a 3% hydrogen peroxide solution, followed by washing with physiologic saline. The root canal was completely dried with paper points, and hemorrhage was controlled. The root canal was completely closed with a temporary seal of cement and resin. After 7 to 14 days following the pulpectomy, the temporary seal was removed, and the root canal underwent the alternate washing, and then, washing with physiologic saline. Smear clean (3% EDTA) was then allowed to react for 2 minutes. The root canal was then further washed with physiologic saline, and dried. Thereafter, FRANCETIN⋅T⋅POWDER (2500 USP of crystalized trypsin per 10 mg) (MOCHIDA PHARMACEUTICAL CO., LTD.) at a concentration of 50 μg/ml (0.05%) or 500 μg/ml (0.5%) was allowed to react in the root canal for 10 minutes or 30 minutes. Washing with physiologic saline was then performed. As a control, a tooth on the opposite side was not treated. Further, FRANCETIN⋅T⋅POWDER was mixed with a nanobubble liquid into a 50 μg/ml (0.05%) solution. The solution was allowed to act in a similar manner for 10 minutes, followed by washing with physiologic saline. A root canal filler was prepared by suspending 1×10^6 autologous dental pulp stem cells, which had been membrane-isolated, in 40 μl of a scaffold (Koken Atelocollagen Implant, KOKEN CO., LTD.), and by suspending 3 μl of 100 μg/ml G-CSF (NEUTROGIN, Chugai Pharmaceutical Co., Ltd.). The root canal filler prepared was injected into each root canal such that no air bubbles were contained. The mobilized dental pulp stem cells were isolated using the membrane-isolation-type culture device described above. A hemostatic gelatin sponge (Spongel) was put on the root canal filler. The cavity was completely sealed with cement and resin. On day 14 following the transplantation, the teeth were extracted. According to a common method, 5 μm paraffin sections of longitudinal cross section were prepared. The paraffin sections were then H-E stained to undergo morphological observation. To analyze angiogenesis, the sections were immunostained with BS-1 lectin. Amounts of regenerated dental pulp of four sections were measured for each sample, and an average amount of four samples was determined as the amount of regenerated dental pulp of the sample.

[3] = tested on: TGW cells (human neuroblastoma cell line); experiment: Neurite outgrowth in TGW cells with culture conditioned medium of senescent dental pulp stem cells; assay type: cell-based; conditions: positive control, 50 ng/μl; after 48 hours
Experimental: Non-separated 22nd-passage human dental pulp stem cells were brought into a state of 50% confluence. The medium was replaced with a serum-free medium. After 24 hours, the culture conditioned medium was collected. The supernatant was concentrated approximately 40-fold using Amicon Ultra-15 Centrifugal Filter Unit with Ultracel-3 membrane (Millipore, Billerica, Mass.) with 3-kDa molecular cut. Proteinase inhibitors (Halt™ proteinase inhibitor cocktail EDTA-free, Thermo Scientific, Rockford, Ill., USA) was added. The mixture was dispended to be stored at −80° C. Protein content was measured using Bradford Ultra™ (Expedeon, Cambridge, UK).
The culture supernatant (5 μg/ml proteins) prepared in 1 above was added to TGW cells (human neuroblastoma cell line). Further, an ALK5 inhibitor (SB431542, 10 ng/μl) was added to a part of the resultant mixture, and a CCR3 antagonist (SB328437, 5 ng/μl) was added to another part of the resultant mixture. TGW cells to which only the culture supernatant was added was used as a negative control. […] Neurite outgrowth after 48 hours was observed and measured with an inverted microscope (Leica).

[4] = 50 μg/ml (0.05%), no dental pulp stem cells transplanted

## O=C(O)CN(CCN(CC(=O)O)CC(=O)O)CC(=O)O [EDTA]
[1]
  cell adhesion to treated dentin: a less number of cells adhered
  induction of the dental pulp stem cells into the dental pulp and dentin: induction into the dentin was promoted

## MMP3: 0.1 mg/mL MMP3, dentin treatment group (v)
[1]
  cell adhesion to treated dentin: inferior in cell adhesiveness

## chymotrypsin
[1]
  cell adhesion to treated dentin: inferior in cell adhesiveness

B1: trypsin (protein, UniProt P00760 24-246, looked up)
Serine protease 1: IVGGYTCGANTVPYQVSLNSGYHFCGGSLINSQWVVSAAHCYKSGIQVRLGEDNINVVEGNEQFISASKSIVHPSYNSNTLNNDIMLIKLKSAASLNSRVASISLPTSCASAGTQCLISGWGNTKSSGTSYPDVLKCLKAPILSDSSCKSAYPGQITSNMFCAGYLEGGKDSCQGDSGGPVVCSGKLQGIVSWGSGCAQKNKPGVYTKVCNYVSWIKQTIASN
notes: FRANCETIN⋅T⋅POWDER (2500 USP of crystalized trypsin per 10 mg), serine protease dental pretreatment material
[2]; 50 μg/ml (0.05%) for 10 minutes prior to root canal filler, day 14, vs no pretreatment
  increase of the amount of regenerated dental pulp: 2.5 times
[2]; 50 μg/ml (0.05%) for 30 minutes, compared with same concentration for 10 minutes, day 14
  amount of regenerated dental pulp: doubled
[2]; [4]
  dental pulp regeneration: almost no dental pulp was regenerated
  inflammation around the periapical region: no inflammation occurred
[2]; 500 μg/ml (0.5%) for 10 minutes, compared with 50 μg/ml (0.05%), day 14
  amount of regenerated dental pulp: did not cause any significant difference
[2]; after trypsin pretreatment and transplantation, day 14
  abnormality at the periapical region: Abnormality such as inflammation was not observed
[2]; day 14
  inflammatory cells, necrotic layer in dental pulp formed after treatment: did not show any increase of inflammatory cells, formation of necrotic layer
[2]; day 14, each pretreated sample
  angiogenesis in the regenerated dental pulp (BS-1 lectin): angiogenesis was observed
[2]; dog 5 years of age, 0.05% trypsin 10 minutes, day 14
  calcification in the periapical tissue (Masson Trichrome stain, vimentin immunostaining): decomposed the calcification in the periapical tissue
[1]
  cell adhesion to treated dentin: cell adhesion was facilitated
  induction of the dental pulp stem cells into the dental pulp and dentin: more promoted

B2: GDNF: GDNF (Peproteck), positive control for neurite outgrowth (protein, UniProt P39905 78-211, looked up)
Glial cell line-derived …: SPDKQMAVLPRRERNRQAAAANPENSRGKGRRGQRGKNRGCVLTAIHLNVTDLGLGYETKEELIFRYCSGSCDAAETTYDKILKNLSRNRRLVSDKVGQACCRPIAFDDDLSFLDDNLVYHILRKHSAKRCGCI
[3]
  Neurite Outgrowth Length: 10540.1 ± 4800.7 μm
